Source: patent US20120231006A1 (Amgen, published 2012)
Each block holds one binder with its values, some of them ahead of it.

Assays:
[1] = molecular target: T1, hOrai1-mOrai1 ECL2 chimeric protein (human/mouse chimera, UniProt Q96D31 1-301); assay: FACS, 293EBNA; parameters: concentration or dose not given beside the values
T1 construct: human Orai1 with mouse ECL2; also called Ch
Excerpt: (§1) FIG. 16A-D illustrates the results of FACS analysis showing binding to the indicated mOrai1-hOrai1 ECL2 chimeric mutants expressed on the surface of HEK-293-EBNA cells. Transfected cells were stained first with recombinant monoclonal antibodies then counter-stained with a secondary phycoerythrin-labeled goat (“Gt”) anti-human (“Hu”) IgG F(ab′)₂ antibody fragment and visualized using FACS. In FIG. 16B and FIG. 16D, The values of Relative Fluorescence Intensity as Percent of Control (RFI-POC) are calculated from the relative fluorescence intensity geometric mean (Geo Mean). The geometric mean is an average calculated by multiplying a series of numbers and taking the nth root where n is the number of numbers in the series. It is a statistical average of a set of transformed numbers often used to represent a central tendency in a highly variable data set that minimizes the effects of extreme values.
(§2) Table 11A and Table 11B feature a schematic representation of the POC data from FIG. 16B and FIG. 16D, respectively, where the binding results are recorded as (+++) denoting binding POC from 40% to 100%, (++) for POC of 5% to less than 40%, (+) for POC from 1% to less than 5% and (−) as lack of binding with POC less than 1%.

[2] = molecular target: T2, mOrai1-hOrai1 ECL2 (…) protein (human/mouse chimera, UniProt Q8BWG9 1-304 (mouse entry)); assay: FACS, 293EBNA; parameters: concentration or dose not given beside the values
T2 construct: also called Ch
Excerpt: as §1, §2
T2 sequence (Q8BWG9 other isoform, or with tags, fused parts or gaps): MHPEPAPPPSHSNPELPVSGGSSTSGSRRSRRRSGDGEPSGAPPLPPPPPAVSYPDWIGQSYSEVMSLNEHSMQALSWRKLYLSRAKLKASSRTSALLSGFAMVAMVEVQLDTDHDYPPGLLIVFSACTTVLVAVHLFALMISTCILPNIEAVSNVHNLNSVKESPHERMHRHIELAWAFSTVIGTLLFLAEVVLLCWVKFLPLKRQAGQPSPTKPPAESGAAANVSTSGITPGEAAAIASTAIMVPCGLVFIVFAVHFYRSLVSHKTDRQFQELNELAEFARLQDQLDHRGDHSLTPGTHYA

[3] = molecular target: T3, mOrai1-hOrai1 ECL2 (SPTKPPAE) protein (human/mouse chimera, UniProt Q8BWG9 1-304 (mouse entry)); assay: FACS, 293EBNA; parameters: concentration or dose not given beside the values
T3 construct: also called Ch
T3 sequence (Q8BWG9 other isoform, or with tags, fused parts or gaps): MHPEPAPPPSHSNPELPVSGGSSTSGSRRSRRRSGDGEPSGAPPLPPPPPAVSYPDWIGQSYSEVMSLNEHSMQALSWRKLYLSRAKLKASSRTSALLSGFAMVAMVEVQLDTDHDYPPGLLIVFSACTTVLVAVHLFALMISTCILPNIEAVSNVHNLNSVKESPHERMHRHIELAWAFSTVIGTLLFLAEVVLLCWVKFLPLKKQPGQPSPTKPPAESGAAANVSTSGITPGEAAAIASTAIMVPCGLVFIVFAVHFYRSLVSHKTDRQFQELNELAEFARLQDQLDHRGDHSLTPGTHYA
Excerpt: as §1, §2

[4] = molecular target: T4, mOrai1-hOrai1 ECL2 (KPPAE) protein (human/mouse chimera, UniProt Q8BWG9 1-304 (mouse entry)); assay: FACS, 293EBNA; parameters: concentration or dose not given beside the values
T4 construct: also called Ch
T4 sequence (Q8BWG9 other isoform, or with tags, fused parts or gaps): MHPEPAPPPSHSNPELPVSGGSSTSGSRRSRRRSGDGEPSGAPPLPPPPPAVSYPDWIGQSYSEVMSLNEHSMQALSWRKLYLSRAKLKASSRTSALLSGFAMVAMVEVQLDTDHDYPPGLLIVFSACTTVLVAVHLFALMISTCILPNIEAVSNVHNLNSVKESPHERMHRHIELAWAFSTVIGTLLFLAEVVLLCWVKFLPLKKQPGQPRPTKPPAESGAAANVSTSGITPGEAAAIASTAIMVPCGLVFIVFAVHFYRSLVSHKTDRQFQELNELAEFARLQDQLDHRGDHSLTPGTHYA
Excerpt: as §1, §2

[5] = molecular target: T5, mOrai1-hOrai1 ECL2 (…) protein (human/mouse chimera, UniProt Q8BWG9 1-304 (mouse entry)); assay: FACS, 293EBNA; parameters: concentration or dose not given beside the values; remark: listed apart in the source
T5 construct: also called Ch
Excerpt: as §1, §2
T5 sequence (Q8BWG9 other isoform, or with tags, fused parts or gaps): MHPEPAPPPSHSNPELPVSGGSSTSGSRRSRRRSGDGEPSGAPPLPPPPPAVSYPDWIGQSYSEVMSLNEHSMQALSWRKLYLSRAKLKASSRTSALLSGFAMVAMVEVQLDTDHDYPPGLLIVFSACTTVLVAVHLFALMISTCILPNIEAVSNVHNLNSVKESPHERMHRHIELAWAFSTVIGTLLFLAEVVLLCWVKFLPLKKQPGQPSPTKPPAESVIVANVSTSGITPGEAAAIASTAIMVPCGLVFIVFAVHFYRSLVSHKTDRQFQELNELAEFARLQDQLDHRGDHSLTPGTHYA

[6] = molecular target: T6, mOrai1-hOrai1 ECL2 (…) protein (human/mouse chimera, UniProt Q8BWG9 1-304 (mouse entry)); assay: FACS, 293EBNA; parameters: concentration or dose not given beside the values; remark: listed apart in the source
T6 construct: also called Ch
Excerpt: as §1, §2
T6 sequence (Q8BWG9 other isoform, or with tags, fused parts or gaps): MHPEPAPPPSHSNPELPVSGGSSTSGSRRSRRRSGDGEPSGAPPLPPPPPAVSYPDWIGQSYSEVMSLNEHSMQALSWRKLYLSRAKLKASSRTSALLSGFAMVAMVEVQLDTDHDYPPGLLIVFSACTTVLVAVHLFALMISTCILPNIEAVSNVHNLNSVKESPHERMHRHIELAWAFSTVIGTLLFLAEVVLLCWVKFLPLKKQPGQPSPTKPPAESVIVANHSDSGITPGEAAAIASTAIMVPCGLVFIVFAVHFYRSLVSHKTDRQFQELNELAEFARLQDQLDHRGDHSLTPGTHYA

[7] = molecular target: T7, mOrai1-hOrai1 ECL2 chimeric protein (human/mouse chimera, UniProt Q8BWG9 1-304 (mouse entry)); assay: FACS, 293EBNA, RFI-POC grade; parameters: concentration or dose not given beside the values
T7 construct: mouse Orai1 with human ECL2; also called Ch
T7 sequence (Q8BWG9 other isoform, or with tags, fused parts or gaps mutant): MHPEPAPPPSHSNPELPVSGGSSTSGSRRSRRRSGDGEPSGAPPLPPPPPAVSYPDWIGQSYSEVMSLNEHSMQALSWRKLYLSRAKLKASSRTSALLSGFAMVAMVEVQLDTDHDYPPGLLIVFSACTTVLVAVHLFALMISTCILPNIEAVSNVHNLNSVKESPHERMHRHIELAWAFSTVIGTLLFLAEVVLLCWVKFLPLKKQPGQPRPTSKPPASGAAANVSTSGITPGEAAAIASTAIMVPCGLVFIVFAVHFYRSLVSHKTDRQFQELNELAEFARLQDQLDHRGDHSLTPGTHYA

[8] = molecular target: T8, hOrai1-mOrai1 ECL2 (…) protein (human/mouse chimera, UniProt Q96D31 1-301); assay: FACS, 293EBNA, RFI-POC grade; parameters: concentration or dose not given beside the values
T8 construct: also called Ch
T8 sequence (Q96D31 other isoform, or with tags, fused parts or gaps): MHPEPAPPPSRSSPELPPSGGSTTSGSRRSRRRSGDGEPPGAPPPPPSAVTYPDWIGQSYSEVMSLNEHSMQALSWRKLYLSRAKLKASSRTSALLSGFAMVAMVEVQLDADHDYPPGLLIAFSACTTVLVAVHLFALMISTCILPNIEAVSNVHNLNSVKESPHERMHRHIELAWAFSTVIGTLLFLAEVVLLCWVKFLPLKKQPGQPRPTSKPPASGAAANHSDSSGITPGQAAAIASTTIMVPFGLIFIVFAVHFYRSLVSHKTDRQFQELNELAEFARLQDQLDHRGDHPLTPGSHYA

[9] = molecular target: T9, hOrai1-mOrai1 ECL2 (…) protein (human/mouse chimera, UniProt Q96D31 1-301); assay: FACS, 293EBNA, RFI-POC grade; parameters: concentration or dose not given beside the values; remark: listed apart in the source
T9 construct: also called Ch
T9 sequence (Q96D31 other isoform, or with tags, fused parts or gaps): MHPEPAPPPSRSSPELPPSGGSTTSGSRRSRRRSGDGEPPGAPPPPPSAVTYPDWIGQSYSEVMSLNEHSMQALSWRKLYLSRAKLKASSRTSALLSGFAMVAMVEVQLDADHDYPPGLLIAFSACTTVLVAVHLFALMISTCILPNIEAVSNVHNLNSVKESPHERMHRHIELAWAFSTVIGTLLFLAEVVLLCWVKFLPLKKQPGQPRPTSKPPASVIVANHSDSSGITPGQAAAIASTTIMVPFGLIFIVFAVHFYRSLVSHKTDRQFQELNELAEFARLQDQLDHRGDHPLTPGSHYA

[10] = molecular target: T10, hOrai1-mOrai1 ECL2 (…) protein (human/mouse chimera, UniProt Q96D31 1-301); assay: FACS, 293EBNA, RFI-POC grade; parameters: concentration or dose not given beside the values; remark: listed apart in the source
T10 construct: also called Ch
T10 sequence (Q96D31 other isoform, or with tags, fused parts or gaps): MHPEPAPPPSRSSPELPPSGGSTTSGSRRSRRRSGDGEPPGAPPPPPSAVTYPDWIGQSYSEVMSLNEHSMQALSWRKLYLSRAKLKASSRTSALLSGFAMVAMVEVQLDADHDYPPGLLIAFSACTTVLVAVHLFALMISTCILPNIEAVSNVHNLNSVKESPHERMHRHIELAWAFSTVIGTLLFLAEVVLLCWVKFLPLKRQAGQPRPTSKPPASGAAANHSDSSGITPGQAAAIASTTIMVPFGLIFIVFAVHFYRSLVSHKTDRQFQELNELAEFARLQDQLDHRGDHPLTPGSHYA

[11] = molecular target: T11, hOrai1-mOrai1 ECL2 (RPTSKPPA) protein (human/mouse chimera, UniProt Q96D31 1-301); assay: FACS, 293EBNA, RFI-POC grade; parameters: concentration or dose not given beside the values
T11 construct: also called Ch
T11 sequence (Q96D31 other isoform, or with tags, fused parts or gaps): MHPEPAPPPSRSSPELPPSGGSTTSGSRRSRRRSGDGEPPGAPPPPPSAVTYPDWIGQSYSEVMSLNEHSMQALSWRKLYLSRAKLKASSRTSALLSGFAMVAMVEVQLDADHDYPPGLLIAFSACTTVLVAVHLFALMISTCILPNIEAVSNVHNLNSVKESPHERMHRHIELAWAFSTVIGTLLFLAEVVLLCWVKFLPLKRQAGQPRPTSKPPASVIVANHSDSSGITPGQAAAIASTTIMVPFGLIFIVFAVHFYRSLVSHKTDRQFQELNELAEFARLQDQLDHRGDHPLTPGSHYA

[12] = molecular target: T12, hOrai1-mOrai1 ECL2 (SKPPA) protein (human/mouse chimera, UniProt Q96D31 1-301); assay: FACS, 293EBNA, RFI-POC grade; parameters: concentration or dose not given beside the values
T12 construct: also called Ch
T12 sequence (Q96D31 other isoform, or with tags, fused parts or gaps): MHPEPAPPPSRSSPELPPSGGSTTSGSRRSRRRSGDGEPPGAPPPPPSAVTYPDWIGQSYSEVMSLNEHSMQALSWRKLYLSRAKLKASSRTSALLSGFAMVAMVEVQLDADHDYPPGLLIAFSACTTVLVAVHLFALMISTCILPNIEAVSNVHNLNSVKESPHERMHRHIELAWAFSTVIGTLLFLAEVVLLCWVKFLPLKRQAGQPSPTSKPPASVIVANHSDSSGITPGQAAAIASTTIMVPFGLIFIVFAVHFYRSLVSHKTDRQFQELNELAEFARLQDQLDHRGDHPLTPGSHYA

[13] = molecular target: T7, mOrai1-hOrai1 ECL2 chimeric protein; assay: FACS, 293EBNA, RFI-POC grade; parameters: concentration or dose not given beside the values; remark: listed apart in the source
Excerpt: as §1, §2

[14] = molecular target: T13, mOrai1-hOrai1 ECL2 (HSD) protein (human/mouse chimera, UniProt Q8BWG9 1-304 (mouse entry)); assay: FACS, 293EBNA, RFI-POC grade; parameters: concentration or dose not given beside the values
T13 construct: also called Ch
T13 sequence (Q8BWG9 other isoform, or with tags, fused parts or gaps): as the sequence (Q8BWG9 other isoform, or with tags, fused parts or gaps mutant) above, with V226H, T228D counted along it
Excerpt: as §1, §2

[15] = molecular target: T2, mOrai1-hOrai1 ECL2 (…) protein; assay: flow cytometry on HEK-293 cells transfected with the chimera (loss of binding experiment)
[16] = molecular target: T3, mOrai1-hOrai1 ECL2 (SPTKPPAE) protein; assay: as above
[17] = molecular target: T4, mOrai1-hOrai1 ECL2 (KPPAE) protein; assay: as above
[18] = molecular target: T5, mOrai1-hOrai1 ECL2 (…) protein; assay: as above; remark: listed apart in the source
[19] = molecular target: T6, mOrai1-hOrai1 ECL2 (…) protein; assay: as above; remark: listed apart in the source
[20] = molecular target: T14, mOrai1-hOrai1 ECL2 (…) protein (human/mouse chimera, UniProt Q8BWG9 1-304 (mouse entry)); assay: FACS, 293EBNA; parameters: concentration or dose not given beside the values; remark: listed apart in the source
T14 construct: also called Ch
Excerpt: as §1, §2
T14 sequence (Q8BWG9 other isoform, or with tags, fused parts or gaps): as the sequence (Q8BWG9 other isoform, or with tags, fused parts or gaps mutant) above, with P218A, A219E, G221V, A222I, A223V, V226H, T228D counted along it

[21] = molecular target: T15, mOrai1-hOrai1 ECL2 (AESVIV) protein (human/mouse chimera, UniProt Q8BWG9 1-304 (mouse entry)); assay: FACS, 293EBNA; parameters: concentration or dose not given beside the values
T15 construct: also called Ch
T15 sequence (Q8BWG9 other isoform, or with tags, fused parts or gaps): as the sequence (Q8BWG9 other isoform, or with tags, fused parts or gaps mutant) above, with P218A, A219E, G221V, A222I, A223V counted along it
Excerpt: as §1, §2

[22] = molecular target: T14, mOrai1-hOrai1 ECL2 (…) protein; assay: flow cytometry on HEK-293 cells transfected with the chimera (loss of binding experiment); remark: listed apart in the source
[23] = molecular target: T15, mOrai1-hOrai1 ECL2 (AESVIV) protein; assay: as above

T1 sequence (Q96D31 other isoform, or with tags, fused parts or gaps mutant): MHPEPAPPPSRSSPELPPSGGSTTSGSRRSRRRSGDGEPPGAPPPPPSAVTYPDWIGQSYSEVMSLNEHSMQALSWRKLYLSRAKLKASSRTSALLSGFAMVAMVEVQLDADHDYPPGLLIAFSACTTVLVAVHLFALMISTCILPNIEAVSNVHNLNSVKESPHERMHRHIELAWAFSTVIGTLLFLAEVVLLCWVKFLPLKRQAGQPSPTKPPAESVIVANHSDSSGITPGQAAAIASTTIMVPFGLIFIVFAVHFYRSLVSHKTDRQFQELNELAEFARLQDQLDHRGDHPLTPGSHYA

POC (percent of control, FACS Geo Mean relative to binding to Ch. 1) [1]: < 1% | POC (percent of control, FACS Geo Mean relative to binding to Ch. 1) [2]: < 1% | POC (percent of control, FACS Geo Mean relative to binding to Ch. 1) [3]: < 1% | POC (percent of control, FACS Geo Mean relative to binding to Ch. 1) [4]: < 1% | POC (percent of control, FACS Geo Mean relative to binding to Ch. 1) [5]: < 1% | POC (percent of control, FACS Geo Mean relative to binding to Ch. 1) [6]: < 1% | percent of control (POC) of FACS Geo Mean [7]: 40 to 100% | percent of control (POC) of FACS Geo Mean [8]: 40 to 100% | percent of control (POC) of FACS Geo Mean [9]: 40 to 100% | percent of control (POC) of FACS Geo Mean [10]: 40 to 100% | percent of control (POC) of FACS Geo Mean [11]: 40 to 100% | percent of control (POC) of FACS Geo Mean [12]: 5 to 40% | POC (percent of control, FACS Geo Mean relative to binding to Ch. 1) [13]: 40 to 100% | POC (percent of control, FACS Geo Mean relative to binding to Ch. 1) [14]: 40 to 100% | binding result [15]: no binding | binding result [16]: no binding | binding result [17]: no binding | binding result [18]: no binding | binding result [19]: no binding
B1: mAb 5B1.1 (antibody, human IgG2, lambda, V domains shown)
VH: QVQLVQSGAEVKKPGASVKVSCKASGYTFTDYYINWVRQAPGQGLEWMGWINPNSGGSSYAQKFQGRVTMTRDTSISTAHMELIRLRSDDTAVYYCARERGGIEDWFDPWGQGTLVTVSS
VL: QSVLTQPPSVSGAPGQRVTISCTGSSSNIGAGYDVHWYQQLPGTAPKLLIYGNSNRPSGVPDRFSGSKSGTSASLAITKFQAEDEAVYYCQSYGSGLSGVVFGGGTKLTVLG
notes: fully human IgG2 lambda, Campaign 2; also called mAb 5Bl1.1

POC (percent of control, FACS Geo Mean relative to Ch. 1) [1]: < 1% | POC (percent of control, FACS Geo Mean relative to Ch. 1) [2]: < 1% | POC (percent of control, FACS Geo Mean relative to Ch. 1) [3]: < 1% | POC (percent of control, FACS Geo Mean relative to Ch. 1) [4]: < 1% | POC (percent of control, FACS Geo Mean relative to Ch. 1) [5]: < 1% | POC (percent of control, FACS Geo Mean relative to Ch. 1) [6]: < 1% | POC (percent of control, FACS Geo Mean relative to Ch. 1) [20]: < 1% | POC (percent of control, FACS Geo Mean relative to Ch. 1) [21]: < 1% | binding result [15]: no binding | binding result [16]: no binding | binding result [17]: no binding | binding result [18]: no binding | binding result [19]: no binding | binding result [22]: no binding | binding result [23]: no binding
B2: mAb 2B4.1 (antibody, human IgG2, lambda, V domains shown)
VH: QVQLVQSGAEVKKPGASVKVSCKASGYTFTDYYMHWVRQAPGQGLEWMGWINPNSGGTNYVQKFQDRVTMTRDTSITTAYMELTRLRSDDTAVYYCAREEGDYGMDVWGQGTTVTVSS
VL: QSVLTQPPSVSGAPGQRVTISCTGSNSNIGTGYDVHWYQKLPGTAPRLLIYSHFNRPSGVPDRFSGSTSGTSASLAITGLQAEDEADYYCQSYDSSLSGSVFGGGTKLTVLG
